Earlier results as cited in US6835389B1, “Powder Composition for nasal administration” (Teijin Limited, priority 1998, dated 2004).

Details: 10 units of insulin to rabbits, nasal, Example 4 of Kokoku No. 62-42888

insulin
absorption rate calculated from the AUC: ≤ 10%
maximum blood concentration: ≤ 200 μU/ml
maximum blood concentration relative to that of the injection administration: about 20%
